Laboratory results taken from article PMC10617564, “Efficient clathrin-mediated entry of enteric adenoviruses in human duodenal cells” (Journal of Virology, 2023).

Target: CAR (CXADR Fc chimera full-length extracellular D1D2 domain) (UniProt P78310)
Assay: SPR; Biacore T-200; CAR-Fc amine-coupled to a CM5 chip (~1,500 response units); analytes in twofold dilutions 2000 to 7.81125 nM, injected 120 s at 30 uL/min; 25°C; 10 mM phosphate buffer pH 7.4, 140 mM NaCl, 0.27 mM KCl, 0.05% Tween20; regeneration with 10 mM glycine pH 1.5; three independent experiments

CAR (CXADR Fc chimera full-length extracellular D1D2 domain), sequence (P78310 20-237, change not shown): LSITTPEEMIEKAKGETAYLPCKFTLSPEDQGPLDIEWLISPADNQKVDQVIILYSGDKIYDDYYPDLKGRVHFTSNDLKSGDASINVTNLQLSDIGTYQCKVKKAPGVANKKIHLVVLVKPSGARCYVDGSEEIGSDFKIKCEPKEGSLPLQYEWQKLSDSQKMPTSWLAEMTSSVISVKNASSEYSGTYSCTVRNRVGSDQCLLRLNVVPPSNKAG
HAdV-F41 long fiber knob (domain or fragment), sequence (P14267 363-562 limits assumed): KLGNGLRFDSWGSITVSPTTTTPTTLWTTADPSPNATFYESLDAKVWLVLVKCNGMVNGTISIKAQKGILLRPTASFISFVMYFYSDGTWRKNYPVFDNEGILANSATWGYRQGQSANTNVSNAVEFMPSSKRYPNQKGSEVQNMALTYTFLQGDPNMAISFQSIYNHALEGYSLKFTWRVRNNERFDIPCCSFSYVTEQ
HAdV-F40 long fiber knob (domain or fragment), sequence (P18047 348-547 limits assumed): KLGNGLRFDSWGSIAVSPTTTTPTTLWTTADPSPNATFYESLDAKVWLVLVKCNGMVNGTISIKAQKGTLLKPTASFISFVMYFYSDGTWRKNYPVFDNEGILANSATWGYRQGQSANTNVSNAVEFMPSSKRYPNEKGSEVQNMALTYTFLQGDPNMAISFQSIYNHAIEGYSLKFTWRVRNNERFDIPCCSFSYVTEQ

Substance | Kd [nM]
HAdV-F40 long fiber knob (domain or fragment) | 25.5
HAdV-F41 long fiber knob (domain or fragment) | 6.34
